Measurements from the supplement of paper PMC9112550, “Optimization of the antimicrobial peptide Bac7 by deep mutational scanning” (BMC Biology, 2022).

Tested on: Escherichia coli TOP10
Experiment: shrunken log2 fold change of peptide-encoding DNA abundance (4.5 h post-induction vs induction); higher = less antimicrobial activity (less host growth inhibition)
Conditions: time post-induction: 4.5 h; library: site-saturation at positions 5, 18, 19, 20
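Also: peptides expressed intracellularly from a pBAD plasmid library in pooled LB shake-flask culture, induced with 0.3% L-arabinose, DNA abundance read by NGS, three biological replicates, DESeq2 with apeglm shrinkage.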

Sequence | shrunken log2 fold change
RRIRKRPPRLPRPRPRPKCCPRP | 0.0349
RRIRKRPPRLPRPRPRPKCDPRP | 0.405
RRIRKRPPRLPRPRPRPKCVPRP | 0.52
RRIRKRPPRLPRPRPRPKFSPRP | 0.0774
RRIRKRPPRLPRPRPRPKGWPRP | 0.61
RRIRKRPPRLPRPRPRPKHQPRP | 0.132
RRIRKRPPRLPRPRPRPKHSPRP | -0.147
RRIRKRPPRLPRPRPRPKHWPRP | 0.162
RRIRKRPPRLPRPRPRPKIVPRP | 0.0401
RRIRKRPPRLPRPRPRPKKRPRP | 1.09
RRIRKRPPRLPRPRPRPKMGPRP | 0.0837
RRIRKRPPRLPRPRPRPKMKPRP | 0.444
RRIRKRPPRLPRPRPRPKNFPRP | -0.148
RRIRKRPPRLPRPRPRPKNRPRP | 0.226
RRIRKRPPRLPRPRPRPKPYPRP | 0.307
RRIRKRPPRLPRPRPRPKQHPRP | 0.657
RRIRKRPPRLPRPRPRPKRLPRP | 0.0257
RRIRKRPPRLPRPRPRPKSGPRP | 0.0187
RRIRKRPPRLPRPRPRPKTDPRP | 0.343
RRIRKRPPRLPRPRPRPKTGPRP | 0.821
RRIRKRPPRLPRPRPRPKWMPRP | -0.168
RRIRKRPPRLPRPRPRPKYCPRP | -0.632
RRIRKRPPRLPRPRPRPKYVPRP | 0.0381
RRIRKRPPRLPRPRPRPLCDPRP | 0.376
RRIRKRPPRLPRPRPRPLCEPRP | 0.446

Sequence | shrunken log2 fold change
RRIRKRPPRLPRPRPRPLENPRP | 0.228
RRIRKRPPRLPRPRPRPLEPPRP | 0.238
RRIRKRPPRLPRPRPRPLFKPRP | 0.11
RRIRKRPPRLPRPRPRPLFQPRP | 0.181
RRIRKRPPRLPRPRPRPLGAPRP | 0.58
RRIRKRPPRLPRPRPRPLGHPRP | 0.166
RRIRKRPPRLPRPRPRPLGMPRP | 0.11
RRIRKRPPRLPRPRPRPLLLPRP | -0.105
RRIRKRPPRLPRPRPRPLMQPRP | -0.134
RRIRKRPPRLPRPRPRPLMTPRP | 0.175
RRIRKRPPRLPRPRPRPLNFPRP | 0.103
RRIRKRPPRLPRPRPRPLNYPRP | -0.217
RRIRKRPPRLPRPRPRPLRAPRP | 1.23
RRIRKRPPRLPRPRPRPLRKPRP | 0.968
RRIRKRPPRLPRPRPRPLRMPRP | 0.236
RRIRKRPPRLPRPRPRPLRSPRP | 0.962
RRIRKRPPRLPRPRPRPLSDPRP | 0.22
RRIRKRPPRLPRPRPRPLSGPRP | -0.0828
RRIRKRPPRLPRPRPRPLSYPRP | -0.0509
RRIRKRPPRLPRPRPRPLTIPRP | 0.146
RRIRKRPPRLPRPRPRPLVKPRP | 0.195
RRIRKRPPRLPRPRPRPLWDPRP | 0.609
RRIRKRPPRLPRPRPRPLWFPRP | 0.107
RRIRKRPPRLPRPRPRPLWPPRP | 0.46
RRIRKRPPRLPRPRPRPLYKPRP | -0.112

Sequence | shrunken log2 fold change
RRIRKRPPRLPRPRPRPMASPRP | 0.55
RRIRKRPPRLPRPRPRPMCEPRP | 0.12
RRIRKRPPRLPRPRPRPMCRPRP | 0.625
RRIRKRPPRLPRPRPRPMCSPRP | -0.0421
RRIRKRPPRLPRPRPRPMDCPRP | 0.0101
RRIRKRPPRLPRPRPRPMEDPRP | -0.00186
RRIRKRPPRLPRPRPRPMFHPRP | -0.144
RRIRKRPPRLPRPRPRPMKEPRP | 0.0132
RRIRKRPPRLPRPRPRPMLFPRP | 0.315
RRIRKRPPRLPRPRPRPMLNPRP | 0.174
RRIRKRPPRLPRPRPRPMLQPRP | 0.122
RRIRKRPPRLPRPRPRPMNQPRP | -0.153
RRIRKRPPRLPRPRPRPMNSPRP | -0.0163
RRIRKRPPRLPRPRPRPMPFPRP | 0.0304
RRIRKRPPRLPRPRPRPMPVPRP | -0.00341
RRIRKRPPRLPRPRPRPMSCPRP | 0.0384
RRIRKRPPRLPRPRPRPMTHPRP | -0.00695
RRIRKRPPRLPRPRPRPMTQPRP | -0.0547
RRIRKRPPRLPRPRPRPMTWPRP | -0.00388
RRIRKRPPRLPRPRPRPMVSPRP | 0.0111
RRIRKRPPRLPRPRPRPMYCPRP | -0.233
RRIRKRPPRLPRPRPRPMYEPRP | -0.132
RRIRKRPPRLPRPRPRPMYSPRP | -0.11
RRIRKRPPRLPRPRPRPNAQPRP | 0.842
RRIRKRPPRLPRPRPRPNCVPRP | 0.109

Sequence | shrunken log2 fold change
RRIRKRPPRLPRPRPRPNCWPRP | 0.621
RRIRKRPPRLPRPRPRPNEEPRP | -1.35e-05
RRIRKRPPRLPRPRPRPNEGPRP | 0.0728
RRIRKRPPRLPRPRPRPNEIPRP | 0.118
RRIRKRPPRLPRPRPRPNEYPRP | 0.0869
RRIRKRPPRLPRPRPRPNFMPRP | -0.117
RRIRKRPPRLPRPRPRPNHPPRP | 0.0844
RRIRKRPPRLPRPRPRPNLQPRP | 0.279
RRIRKRPPRLPRPRPRPNMDPRP | -0.0504
RRIRKRPPRLPRPRPRPNMPPRP | 0.145
RRIRKRPPRLPRPRPRPNMTPRP | 0.0525
RRIRKRPPRLPRPRPRPNPEPRP | 0.0292
RRIRKRPPRLPRPRPRPNPGPRP | 0.155
RRIRKRPPRLPRPRPRPNQGPRP | 0.079
RRIRKRPPRLPRPRPRPNQKPRP | 0.11
RRIRKRPPRLPRPRPRPNRIPRP | 0.0866
RRIRKRPPRLPRPRPRPNSNPRP | -0.115
RRIRKRPPRLPRPRPRPNSTPRP | -0.0291
RRIRKRPPRLPRPRPRPNTAPRP | 0.159
RRIRKRPPRLPRPRPRPNTEPRP | 0.0416
RRIRKRPPRLPRPRPRPNTFPRP | -0.0899
RRIRKRPPRLPRPRPRPNTHPRP | -0.125
RRIRKRPPRLPRPRPRPNTSPRP | 0.0472
RRIRKRPPRLPRPRPRPNWAPRP | 0.279
RRIRKRPPRLPRPRPRPNWSPRP | 0.139

Sequence | shrunken log2 fold change
RRIRKRPPRLPRPRPRPPCFPRP | 0.211
RRIRKRPPRLPRPRPRPPDNPRP | 0.0807
RRIRKRPPRLPRPRPRPPEGPRP | 1.08
RRIRKRPPRLPRPRPRPPEPPRP | 0.842
RRIRKRPPRLPRPRPRPPEYPRP | 0.0748
RRIRKRPPRLPRPRPRPPFCPRP | -0.0397
RRIRKRPPRLPRPRPRPPGHPRP | 0.377
RRIRKRPPRLPRPRPRPPGIPRP | 0.279
RRIRKRPPRLPRPRPRPPGNPRP | 0.712
RRIRKRPPRLPRPRPRPPGRPRP | 2.07
RRIRKRPPRLPRPRPRPPHHPRP | 0.322
RRIRKRPPRLPRPRPRPPHIPRP | 0.41
RRIRKRPPRLPRPRPRPPITPRP | 0.0882
RRIRKRPPRLPRPRPRPPIWPRP | 0.106
RRIRKRPPRLPRPRPRPPKIPRP | 0.405
RRIRKRPPRLPRPRPRPPKPPRP | 0.319
RRIRKRPPRLPRPRPRPPLMPRP | 0.396
RRIRKRPPRLPRPRPRPPNMPRP | 0.0839
RRIRKRPPRLPRPRPRPPPQPRP | 1.02
RRIRKRPPRLPRPRPRPPPVPRP | 0.751
RRIRKRPPRLPRPRPRPPPWPRP | 1.03
RRIRKRPPRLPRPRPRPPQCPRP | 0.26
RRIRKRPPRLPRPRPRPPQQPRP | 0.346
RRIRKRPPRLPRPRPRPPRMPRP | 0.648
RRIRKRPPRLPRPRPRPPTFPRP | 0.149

Sequence | shrunken log2 fold change
RRIRKRPPRLPRPRPRPPVIPRP | 0.063
RRIRKRPPRLPRPRPRPPVPPRP | 0.794
RRIRKRPPRLPRPRPRPPVYPRP | 0.387
RRIRKRPPRLPRPRPRPPWAPRP | 0.496
RRIRKRPPRLPRPRPRPPWNPRP | 0.136
RRIRKRPPRLPRPRPRPQACPRP | -0.109
RRIRKRPPRLPRPRPRPQFHPRP | 0.119
RRIRKRPPRLPRPRPRPQFMPRP | -0.54
RRIRKRPPRLPRPRPRPQFSPRP | 0.0164
RRIRKRPPRLPRPRPRPQFWPRP | 0.248
RRIRKRPPRLPRPRPRPQGSPRP | -0.0103
RRIRKRPPRLPRPRPRPQGWPRP | 0.116
RRIRKRPPRLPRPRPRPQHQPRP | 0.122
RRIRKRPPRLPRPRPRPQIGPRP | -0.0295
RRIRKRPPRLPRPRPRPQKCPRP | 0.00165
RRIRKRPPRLPRPRPRPQKYPRP | -0.184
RRIRKRPPRLPRPRPRPQLKPRP | 0.275
RRIRKRPPRLPRPRPRPQLPPRP | -0.105
RRIRKRPPRLPRPRPRPQLVPRP | 0.225
RRIRKRPPRLPRPRPRPQMGPRP | 0.0203
RRIRKRPPRLPRPRPRPQNFPRP | -0.214
RRIRKRPPRLPRPRPRPQNQPRP | 0.0634
RRIRKRPPRLPRPRPRPQNVPRP | -0.0694
RRIRKRPPRLPRPRPRPQNYPRP | -0.196
RRIRKRPPRLPRPRPRPQPKPRP | 0.19
